From IntAct's records for PubMed 34948388

B1: Multifunctional methyltransferase subunit TRM112-like protein (Homo sapiens), Q9UI30 (parent)
chain: MKLLTHNLLSSHVRGVGSRGFPLRLQATEVRICPVEFNPNFVARMIPKVEWSAFLEAADNLRLIQVPKGPVEGYEENEEFLRTMHHLLLEVEVIEGTLQCPESGRMFPISRGIPNMLLSEEETES
partner: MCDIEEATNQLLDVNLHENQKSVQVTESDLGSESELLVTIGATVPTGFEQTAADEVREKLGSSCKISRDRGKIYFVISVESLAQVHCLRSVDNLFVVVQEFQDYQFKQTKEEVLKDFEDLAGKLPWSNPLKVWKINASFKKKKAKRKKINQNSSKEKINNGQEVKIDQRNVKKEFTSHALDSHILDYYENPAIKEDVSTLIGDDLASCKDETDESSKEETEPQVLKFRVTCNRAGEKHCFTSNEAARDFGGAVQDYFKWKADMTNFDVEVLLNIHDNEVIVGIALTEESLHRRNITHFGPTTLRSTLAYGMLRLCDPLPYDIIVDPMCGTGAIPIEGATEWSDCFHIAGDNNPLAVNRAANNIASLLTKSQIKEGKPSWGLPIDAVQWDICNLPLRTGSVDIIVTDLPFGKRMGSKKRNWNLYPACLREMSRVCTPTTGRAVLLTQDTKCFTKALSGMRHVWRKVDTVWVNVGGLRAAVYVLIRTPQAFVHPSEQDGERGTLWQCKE
B2: Multifunctional methyltransferase subunit TRM112-like protein (Homo sapiens), Q9UI30 (parent)
chain: B1 chain
partner: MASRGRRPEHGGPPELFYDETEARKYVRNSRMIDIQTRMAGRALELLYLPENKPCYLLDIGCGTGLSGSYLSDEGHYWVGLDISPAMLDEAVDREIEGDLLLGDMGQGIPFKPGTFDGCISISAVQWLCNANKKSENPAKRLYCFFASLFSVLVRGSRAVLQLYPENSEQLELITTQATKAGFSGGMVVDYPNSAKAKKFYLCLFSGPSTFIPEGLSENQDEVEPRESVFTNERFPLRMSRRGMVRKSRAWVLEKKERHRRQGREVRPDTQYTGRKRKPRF

Variants of: B1
Conditions: with thum3_human THUMPD3, Q9BV44

Variant | effect of a mutation on the interaction
MKLLTHNLLSSHVRGVGSRGFPLRLQATEVRICPVEFNPNFVARMIPKVEWSAFLEAADNLRLIQVPKGPVEGYEENEEFLRTMHHLLLEVEVIEGTLQCPESGRMAPISRGIPNMLLSEEETES | disrupting interaction strength
MKLLAHNLLSSHVRGVGSRGFPLRLQATEVRICPVEFNPNFVARMIPKVEWSAFLEAADNLRLIQVPKGPVEGYEENEEFLRTMHHLLLEVEVIEGTLQCPESGRMFPISRGIPNMLLSEEETES | disrupting interaction strength
MKLLTHNLLSSHVRGVGSRGFPLRLQATEVRICPVEFNPNFVARMIPKVAWSAFLEAADNLRLIQVPKGPVEGYEENEEFLRTMHHLLLEVEVIEGTLQCPESGRMFPISRGIPNMLLSEEETES | with no effect
MKLLTHNLLSSHVRGVGSRGFPLRLQATEVRICPVEFNPNFVARMIPKVEWSAFLEAADNLRLIQVPKGPVEGYEENEEFLRTMHHLLLEVEVIEGTLQCPESGRMFPISRGAPNMLLSEEETES | disrupting interaction strength
MKLLTHNLLFSHVRGVGSRGFPLRLQATEVRICPVEFNPNFVARMIPKVEWSAFLEAADNLRLIQVPKGPVEGYEENEEFLRTMHHLLLEVEVIEGTLQCPESGRMFPISRGIPNMLLSEEETES | with no effect
MKLLTHNLLSSHVRGVGSRGFPLRLQATEVRICPVEFNPNFVARMIPAVEWSAFLEAADNLRLIQVPKGPVEGYEENEEFLRTMHHLLLEVEVIEGTLQCPESGRMFPISRGIPNMLLSEEETES | disrupting interaction strength
MKLLTHNLLSSHVRGVGSRGFPLRLQATEVRICPVEFNPNFVARAIPKVEWSAFLEAADNLRLIQVPKGPVEGYEENEEFLRTMHHLLLEVEVIEGTLQCPESGRMFPISRGIPNMLLSEEETES | disrupting interaction strength
MKLLTHNWLSSHVRGVGSRGFPLRLQATEVRICPVEFNPNFVARMIPKVEWSAFLEAADNLRLIQVPKGPVEGYEENEEFLRTMHHLLLEVEVIEGTLQCPESGRMFPISRGIPNMLLSEEETES | disrupting interaction strength
MKLLTHNLLSSHVRGVGSRGFPLRLQATEVRICPVEFNPNFVARMIPAVEWSAFLEAADNLRLIQVPKGPVEGYEENEEFLRTMHHLLLEVAVIEGTLQCPESGRMFPISRGIPNMLLSEEETES | disrupting interaction strength
MKLLTHNLLSSHVRGVGSRGFPLRLQATEVRICPVEFNPNFVARMIPKVEWSAFLEAADNLRLIQVPKGPVEGYEENEEFLRTMHHLLLEVAVIEGTLQCPESGRMFPISRGIPNMLLSEEETES | disrupting interaction strength

Variants of: B2
Conditions: with bud23_human BUD23, O43709

Variant | effect of a mutation on the interaction
MKLLTHNLLSSHVRGVGSRGFPLRLQATEVRICPVEFNPNFVARMIPAVEWSAFLEAADNLRLIQVPKGPVEGYEENEEFLRTMHHLLLEVEVIEGTLQCPESGRMFPISRGIPNMLLSEEETES | with no effect
MKLLTHNLLSSHVRGVGSRGFPLRLQATEVRICPVEFNPNFVARMIPKVEWSAFLEAADNLRLIQVPKGPVEGYEENEEFLRTMHHLLLEVEVIEGTLQCPESGRMFPISRGAPNMLLSEEETES | with no effect
MKLLTHNWLSSHVRGVGSRGFPLRLQATEVRICPVEFNPNFVARMIPKVEWSAFLEAADNLRLIQVPKGPVEGYEENEEFLRTMHHLLLEVEVIEGTLQCPESGRMFPISRGIPNMLLSEEETES | with no effect
MKLLTHNLLFSHVRGVGSRGFPLRLQATEVRICPVEFNPNFVARMIPKVEWSAFLEAADNLRLIQVPKGPVEGYEENEEFLRTMHHLLLEVEVIEGTLQCPESGRMFPISRGIPNMLLSEEETES | with no effect
MKLLTHNLLSSHVRGVGSRGFPLRLQATEVRICPVEFNPNFVARMIPKVEWSAFLEAADNLRLIQVPKGPVEGYEENEEFLRTMHHLLLEVEVIEGTLQCPESGRMAPISRGIPNMLLSEEETES | disrupting interaction strength
MKLLTHNLLSSHVRGVGSRGFPLRLQATEVRICPVEFNPNFVARMIPAVEWSAFLEAADNLRLIQVPKGPVEGYEENEEFLRTMHHLLLEVAVIEGTLQCPESGRMFPISRGIPNMLLSEEETES | with no effect
MKLLTHNLLSSHVRGVGSRGFPLRLQATEVRICPVEFNPNFVARMIPKVAWSAFLEAADNLRLIQVPKGPVEGYEENEEFLRTMHHLLLEVEVIEGTLQCPESGRMFPISRGIPNMLLSEEETES | with no effect
MKLLTHNLLSSHVRGVGSRGFPLRLQATEVRICPVEFNPNFVARAIPKVEWSAFLEAADNLRLIQVPKGPVEGYEENEEFLRTMHHLLLEVEVIEGTLQCPESGRMFPISRGIPNMLLSEEETES | with no effect
MKLLTHNLLSSHVRGVGSRGFPLRLQATEVRICPVEFNPNFVARMIPKVEWSAFLEAADNLRLIQVPKGPVEGYEENEEFLRTMHHLLLEVAVIEGTLQCPESGRMFPISRGIPNMLLSEEETES | with no effect
